Experiment [1] addresses YFP-tagged Kv7.2 WT channel (human) (UniProt O43526). Briefly: FRET or BRET; living HEK293T cells; mCFP-CaM (donor) and YFP (mCitrine)-tagged Kv7.2, ABCD or AB (acceptor), transfection ratio 1:5; spectral unmixing of confocal images; room temperature, buffer with 2 mM CaCl2, pH 7.4.
Experiment [2] concerns the target mTFP1-AB-mcpVenus folding biosensor, W344R (human).
Experiment [3] deals with mTFP1-AB-mcpVenus folding biosensor, WT (human).

The values below come from paper PMC8138981.

Chain of mTFP1-AB-mcpVenus folding biosensor, WT (human) (O43526 whole entry): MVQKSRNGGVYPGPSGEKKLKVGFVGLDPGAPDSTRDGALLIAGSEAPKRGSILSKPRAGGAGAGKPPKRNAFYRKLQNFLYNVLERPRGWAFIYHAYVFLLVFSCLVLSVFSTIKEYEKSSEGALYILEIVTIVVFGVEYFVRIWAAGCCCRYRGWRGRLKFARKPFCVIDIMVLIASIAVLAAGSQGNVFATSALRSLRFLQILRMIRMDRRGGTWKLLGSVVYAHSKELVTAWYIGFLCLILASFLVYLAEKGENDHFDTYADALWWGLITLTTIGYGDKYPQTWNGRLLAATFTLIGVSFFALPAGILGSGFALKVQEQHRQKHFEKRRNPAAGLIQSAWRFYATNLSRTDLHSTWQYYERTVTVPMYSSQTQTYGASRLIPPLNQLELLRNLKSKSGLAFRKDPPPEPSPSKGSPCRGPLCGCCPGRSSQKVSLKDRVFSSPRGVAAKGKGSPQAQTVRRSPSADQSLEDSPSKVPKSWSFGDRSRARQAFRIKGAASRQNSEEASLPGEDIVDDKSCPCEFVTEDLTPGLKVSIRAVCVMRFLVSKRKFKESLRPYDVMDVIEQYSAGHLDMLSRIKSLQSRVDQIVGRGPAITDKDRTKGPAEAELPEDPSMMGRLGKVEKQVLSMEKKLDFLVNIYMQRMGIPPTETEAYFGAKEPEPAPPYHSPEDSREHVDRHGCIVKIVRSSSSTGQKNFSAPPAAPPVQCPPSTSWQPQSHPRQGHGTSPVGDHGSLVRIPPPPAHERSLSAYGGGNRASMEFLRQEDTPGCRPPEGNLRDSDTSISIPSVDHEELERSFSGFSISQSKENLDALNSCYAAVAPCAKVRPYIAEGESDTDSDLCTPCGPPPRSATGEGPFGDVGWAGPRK
Chain of YFP-tagged Kv7.2 WT channel (human) (O43526 other isoform, or with tags, fused parts or gaps): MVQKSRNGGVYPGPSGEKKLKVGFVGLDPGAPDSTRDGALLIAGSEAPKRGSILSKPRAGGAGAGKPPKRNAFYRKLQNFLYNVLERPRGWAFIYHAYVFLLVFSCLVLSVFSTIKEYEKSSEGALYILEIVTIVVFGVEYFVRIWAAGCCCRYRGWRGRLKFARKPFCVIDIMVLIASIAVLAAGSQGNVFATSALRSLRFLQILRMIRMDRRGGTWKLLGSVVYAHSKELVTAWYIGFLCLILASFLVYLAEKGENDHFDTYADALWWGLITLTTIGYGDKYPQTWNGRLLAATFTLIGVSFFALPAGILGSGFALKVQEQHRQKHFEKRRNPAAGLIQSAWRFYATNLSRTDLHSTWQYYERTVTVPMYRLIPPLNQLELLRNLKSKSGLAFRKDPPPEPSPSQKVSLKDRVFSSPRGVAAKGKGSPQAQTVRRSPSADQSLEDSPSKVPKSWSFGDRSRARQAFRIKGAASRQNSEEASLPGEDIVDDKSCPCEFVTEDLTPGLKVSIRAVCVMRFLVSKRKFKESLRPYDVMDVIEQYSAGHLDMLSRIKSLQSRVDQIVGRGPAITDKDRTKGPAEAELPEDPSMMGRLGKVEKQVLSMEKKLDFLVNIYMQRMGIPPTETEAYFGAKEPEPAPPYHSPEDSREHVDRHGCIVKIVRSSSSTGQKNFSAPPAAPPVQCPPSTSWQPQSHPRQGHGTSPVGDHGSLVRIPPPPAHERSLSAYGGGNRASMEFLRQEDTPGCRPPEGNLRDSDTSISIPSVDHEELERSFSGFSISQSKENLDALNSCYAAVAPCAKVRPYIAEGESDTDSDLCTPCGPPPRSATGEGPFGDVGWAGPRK

As for “Calmodulin with an N-terminus mCFP-tag (from UniProt P0DP23 1-149) (natural protein)”, the FRET efficiency in experiment [1] amounted to 0.18. For the substance “Calmodulin (from UniProt P0DP23 1-149) (natural protein)”, the FRET efficiency of the soluble fraction of the sensor co-expressed with CaM in E. coli, relative to the WT biosensor in experiment [2] came to 33%. Further, in experiment [3], the FRET efficiency (ratio of peak emission at 528 and 492 nm) of the folding sensor co-expressed with CaM stood at 0.4.
